We go through 21 sequences from a protein production outcome set (Wang et al. 2014).

The series can be described thus: label from the status in PepcDB records.
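Note: failed if final PepcDB status was selected cloned or expressed and not failed if soluble or beyond.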

With “MASKSGSGGLREPPNEQAVLNMYEGKRSELSQIYSNITDLEMQVSEHSLVINAIQPLDQSRKCFRMIGGVLVERTIKEVLPAVQRNKDGLEEVVRKLYETLEKKKKDLTEFEAKYKIRITKQEDNKEGGNKKEGNAQGVLVGAASSSQ”, the protein production result is “failed”.
The result for “MASLAAVVRALLRRESQRATGYALREWTMLTARHLPYLQGQLTLGRIAAVGHLQRSTLGRSEWHTSSAPLFGEGRGRWHWGLSTSDVVDGSDHEHHSTETGGRELPSFKTGELGSDVDGDRAALEAWLAQIRDETSGWPELSLDALRDELDEELEGDDDDNDDDDDETYENEELLKALQEAVNRHRTPVVALVSGRVVHLRRTAAPKRSPRAGRVPRNEPQTTSRDTTKADANDNECT” reads “not failed”; that for “MASLIMTTPFPGSVTACKKTNNLSVQRAFKVTCMQTEKPLEELYNVKVERKVSQKRLEELGVSRWSVWKTGKCKLPWDWQVDQLVYIEQGEVRVVPEGSKRYMQFLAGDLVRYPKWLEADLFFNAPYIERYCFKAYGDD”, “failed”.
The result for “MASSAVSLQSISMTTLNNLSCNQQFHRSSLLGSSKSFQNLGISSNGSDFSYPSSFTAKKNLTASRALSQNGNIENPRPSKVQELSVYEINELDRHSPKILKNAFSLMFGLGDLVPFTNKLYTGDLKKRVGITAGLCVVIEHVPEKKGERFEATYSFYFGDYGHLSVQGPYLTYEDSFLAITGGAGIFEGAYGQVKLQQLVYPTKLFYTFYLKGLANDLPLELTGTPVPPSKDIEPAPEAKALEPSGVISNYTN” reads “not failed”; that for “MASSKQADPQTDARPLPQDFETALAELESLVSAMENGTLPLEQSLSAYRRGVELARVCQDRLAQAEQQVKVLEGDLLRPLDPAALDDE”, “not failed”.
As to “MASSVILREDGFAPPKPSPTTHEKASTKGDRDGVECKNSDSEEECLVKKTVAAHTDYIYTQDLNLSP”, the protein production result is listed as “failed”.
The result for “MASTNQELASALRMFSRFFDLIHQPLAVINERGEYVYYNQESADLDGYSIERAMGKHMLDVYPGMKETQSTMLSSLKKGVEYIGHYQIYYNARGQAVDYQHTTAPLYASDGGMVGVIEIGRNMSGVRRLQEQVVELNQLLYADHHEKHHAIITENPEMLSNIAKAKRLAASNIPVTIVGETGTGKELFSRLIHQCSKRANKPFIALNCGALPPTLIESTLFGTVRGAYTGAENSQGYLELANGGTLFLDELNAMPIEMQSKLLRFLQDKTFWRLGGQQQLHSDVRIVAAMNEAPVKLIQQERLRADLFYRLSVGMLTLPPLRARPEDIPLLANYFIDKYRNDVPQDIHGLSETARADLLNHAWPGNVRMLENAIVRSMIMQEKDGLLKHIIFEQDELNLGVPETAPENPLPSSPDPQYEGSLEVRVANYERHLIETALDTHQGNIAAAARSLNVSRTTLQYKVQKYAIRFGVVRN” reads “failed”; that for “MASWLVLCRFVHFAVVLTLVGAWVFRPLLLGRDSAQSGHGAVHRQLDRLSRWLTLIGLGSGLCWLLLITASMAGSWSAALDPATVQLVLGKTFFGQVWTWHLLLNLLLLGLLLTPLGRRLPLQLGLGALLLATLAPVGHGAMLDGLAGQLLILNQVVHLSCVGIWLGGLLVLLLVLRQPPQASVEPLLRRFSGVGYGLVAGLLASGLINVRVLTGQWWPTPLFSGFALILLIKVLLVAGMLALALFNRLRIRGCDQRLASLRNSVQLEWLLGVAAVAAVSLLGTLPPMQVI”, “failed”; that for “MASYAELFDIGEDFAAFVGHGLATEQGAVARFRQKLESNGLPSALTERLQRIERRYRLLVAGEMWCPDCQINLAALDFAQRLQPNIELAIISKGRAEDDLRQRLALERIAIPLVLVLDEEFNLLGRFVERPQAVLDGGPQALAAYKAGDYLEHAIGDVLAIIEGAAR”, “not failed”.
Next, “MATAFSSLRARLFALLLLALLLLLAPLAWLSAREAERAASEDLRRALYTRLYLLQAEGVQDEERLLLELFRLAQLFGGGVGFVLREGEARFTQLGDWPLPPGLPAALAAEGVYQGVFRGTLYVVLAQGGLAYGLAVPLEGVSGLGQRLLARYALWGGGLLLGVFLLAALALSWTLRPLRDLEKALRARAPEDLSPLPDPGLAELRPVVAALNALFARVGRLLAELAEKEEAARRFARHASHELRTPLTALKGYLEVLRRKNEPRALEGALREAGRMEALLAGLLRLSRLEALPPQRVPLDLRAFLEAQGLEVQGEGRVLADPELLALAVENVLENARRHGRLPVRAELSREGEGVWVWLVDAGPGFPEDLLPRVLEPFVHGGKGTGLGLALVAAVARAHGGRVRVENRGGAGVGLYLPLAPLKVSPGVPFGEGG”: “not failed”; “MATAGSSYSVSTDHQVSSPLVNLGNVAGVCIMSNAWKVEQEPSLINFISAFLSANSFRLNFVSIPPDLIFNCGGVSIAFVFVTKWDFSNVASIFSRVKRLKGQFAQLYVVATLSTKEQSDSFMRSYFQYEMEFGKPAFVQVTDAEMGFEKIVKIAHSRGVCKQQKVASKLKVERKRTVQDTNIFIRFVTSIPNINKHDANTVMFTYEQVQVLYQAIGSIEAIAKASKEDILANTDLSSKKADTLTRFFQDPEFYLSPKFN”: “failed”.
Next, “MATATATSERFELAKHCSSRNWSKAIRVLDSLLAKESSILDICNRAFCYNQLELHKHVIKDCDKALLLEPFAIQAFILKGRALLALGRKQEAVLVLEQGYKSALQQTADVKQLLELEELLKDARREIDGILKSHATESPQETPAYHSEKSDEKSDKLDNHESGASSNGNSHESSSELGEQSKIVSFSKVASKASKQSDGNSDLCNGSVYKEKENGKCGSQINGYYESCKPCNGSDLHDNLAESSDRFGELSINGNKISIKSSKMSHKAEARCGISDESRKNKKYTIARISGTHSISVDFRLSRGIAQVNEGNYTKAISIFDKVLKEEPTYPEALIGRGTAYAFQRELESAIADFTKAIQSNPAASEAWKRRGQARAALGEYVEAVEDLTKALVFEPNSPDVLHERGIVNFKSKDFTAAVKDLSICLKQEKDNKSAYTYLGLAFASLGEYKKAEEAHLKSIQLDSNYLEAWLHLAQFYQELADHCKALECIEQVLQVDNRVWKAYHLRGLVFHGLGEHRKAIQELSIGLSIENTIECLYLRGSCYHAVGEYRDAVKDYDATVDVELDAVEKFVLQCLAFYQKELALYTASKVSSEFLCFDIDGDIDPMFKEYWCKRLHPKNVCEKVYRQPPLRESLKKGKLKKQDLAITKQKANILRFADLIGKRIQYDCPGFLPNKRQHRMAGLAVIEIAQKVSKAWRIEWRNSTKGTTKNGKKNRRRERTNILSQNRGGAGCSSSSFSETSTGYASLEDRSSGRSILSWQDVYSPAVRWRQISEPCDPVVWVNKLSEEFNSGFGSHTPMVLGQAKVVRYFPNYERTLTLAKSIIKDKLSVRSKKDKVIDLSKDEKIEKIMRAETCDELHNIVGEDFWVATWCDSTGSEGWVC”: “failed”.
With “MATDTTVQLRAGWQGRFYEDFAVGDVYKHPYGRTVTETDNVWFTNLTMNANPMHFNAAYASGTEFDERLVNGLFVIALSVGMSVVDVSANATANLGYDDIQHHAPVFHGDTLFAESEVLSKRESESRPHVGMVTTELRTYTQDGELVLSLERTPMVRKRGAADPLEHHHHHH”, the protein production result is reported as “failed”.
The result for “MATEATTKFPESDLRPIPQPPDFHPAIIVPAQNTTLKFWQLMVAGSIAGSVEHMAMFPVDTVKTHMQALRSCPIKPIGIRQAFRSIIKTDGPSALYRGIWAMGLGAGPAHAVYFSFYEVSKKFLSGGNPNNSAAHAISGVFATISSDAVFTPMDMVKQRLQIGNGTYKGVWDCIKRVTREEGFGAFYASYRTTVLMNAPFTAVHFTTYEAVKRGLREMLPEHAVGAEDEEGWLIYATAGAAAGGLAAAVTTPLDVVKTQLQCQGVCGCDRFKSSSISDVFRTIVKKDGYRGLARGWLPRMLFHAPAAAICWSTYETVKSFFQDLNGEANAA” reads “failed”; that for “MATEIGSPPRFFHMPRFQHQAPRQLFYKRPDFAQQQAMQQLTFDGKRMRKAVNRKTIDYNPSVIKYLENRIWQRDQRDMRAIQPDAGYYNDLVPPIGMLNNPMNAVTTKFVRTSTNKVKCPVFVVRWTPEGRRLVTGASSGEFTLWNGLTFNFETILQAHDSPVRAMTWSHNDMWMLTADHGGYVKYWQSNMNNVKMFQAHKEAIREASFSPTDNKFATCSDDGTVRIWDFLRCHEERILRDTCFHHCRCYFLSVKR”, “failed”.
The result for “MATEKLPPLERYIRMLELLTAFPDGLALSELSAMIELPKASAHRLIKTLQELELAATSSPGSATYVTGPRLRKLAFMSADAQWVVAILRPFLRELTQEMGETAFVARLEGASVRTIAFEAPETPWRGFILPGYEMHPNAAASAKAILAFQDAATLKRALREPFERLTPQTNLSKERLLEEYAAIRQSGVATCIGEIDEGLAAVAVPIEVGGAAGLYSLGLTGPMNRVMALGVERAAERMMAYAARMASGLSAGLSAESARAAGLS” reads “failed”; that for “MATGKISKRSIDALRPNASNQFLWDTDLKGFGAKITPAGAISYVLQFRMGGREASTRRYTIGAHGSPWTPTTARAEAERLLLLIGQGVDPVDADKQRRREAVDLAFANYAERFARSCKGDGWRRLVERAIRLYLTPVLGKKALPAINRTDVVSVFDNMPADQVANRRNVFAVLRRLFRWAVSRGDLDRSPMEGMETPPPVKARERWLSDDELRLIWNAAPECHRCFGPIVRLLIATGQRREEVSGMRWSELSRTDKLWTLPGDRTKNGEPNTIPLNDLAVAELDAAAGGDKWPRKGRVFATSTGAGFTGYAKGKDKLDRLIELAEGEPLPPWRLHDLRRTLATNFQRLGVRFEVTEAVLNHVGGSRSGVAGIYQRHDWKEEKRQALDDWNSHLEQILMRPSPGNRQAASQAAADLDK”, “failed”; that for “MATGNTLLAVYRSRIGEPTTDDEAYGYWLFVIGIVLGIVGLLLFYLTASRSTPRQFGYLLGAIGLISLFAGPTIRLPLTRRGLILTYLGAVVGLVAMVWFTTFYPSNWTGPEGNPAVTLYIVGLGLMAVGAVVSPLLTGRKEAYDKAVQTAEDATEVAEQATQEADRASREATQQSQTADRATRERNRLAEQLATSEAAREELATVTEASEAELAAAHATIAAAMDSKATFELYEDAGGKYRWRLRHRNANVIADSAQGYSSRQKAMQGLRSVQSNAAGGAVVFFEDATEDDTAEDVPVVPAPESDATFELFEDSAGEFRWRLRHDNGNILADSGEGYASKSNVRRALQSVRAHVPGAAYLRVDPVAYEVYADAAGEFRWRLLHRNGNILADSGEGYSSRSNARRAARRVSELAPDSAVDDRFEVYEDAAEEWRWRLRADNGELIADSGEGYANRSKAMDAVERVQSYAADADLLAIGSAAFEVYEDKGEEWRWRLRHRNGKIIADSGEGYAERNKAVAAIERIKRHAPGATQEE”, “failed”.
The result for “MATIDLVRHAEPDITIHDDFLRPLTSAGQRQTQQLVDSLHQYPYTAFFSSPLKRAVDTITPIADDHGLPVQKNELLVERKMPAWLPNFSDYVNQQWQDLTFFEKPGESIHQVQERYLSFLYGLPSSAFVAVGSHGTAISSLVEAAIPGIGYHFFSKLGYAAVTRIEMHAGNMVHLAVWEPKSKTFKVLK” reads “failed”; that for “MATIYLVRHGQASFGKENYDQLSPRGWEQGRILGRWLAGKVEPGAVFGGNLQRHRETVEAITTGYGVSLPDMQVLEGLNEFDHLEVVERLRPEWADKQVMARDLASFPKPAKAFQQAFEKAVARWVSGDYDHEYTETWIDFRQRVGAALDELIELAGGADVIVSTSGGPIAVIAQHLLELSDRKALEMNNVIANTSVSRILYSGPRRSLAVFNNYSHLEAEDPALVTFR”, “failed”; that for “MATKAIVVEGGAMRGVFASGVLDAFLERDYKPFDFAIGVSAGASNLIGYLTDYPHRSINVITKLATSKRFFDPTRFLKGGDLIDVKWLFEESNRLYPVDEKKLFEGIPFFAATTNVDTGKADYYRVTRENFHHAIEATTALPIAYKHTPCFSGGCYTDGGVADSIPVREAYRRGARDITVVLSHPLNYSKKPVKNTWLMNKLFAEHPKMAEAMLHRSENYNESLEFIRNPPQGTRVRVIAPPDEFHVQRLSMRQSVLLEGYEMGLQEGRTHITNLSGGYGLSRENCHFCL”, “failed”.
